Assay [1] concerns the target T1, pathological Aβ amyloid (Alzheimer's disease human brain) (human, UniProt P05067 672-713).
T1 construct: also called Aβ deposits
The assay is described as follows: immunohistochemistry, paraffin-embedded Alzheimer's disease brain sections.

Assay [2] deals with T2, pepscan peptide 2: 4-TATCATQRLA-13 (human).
T2 construct: Spotted on a nitrocellulose membrane
T2 peptide: TATCATQRLA
Description: pepscan on nitrocellulose membrane.

Assay [3] deals with bovine serum albumin (BSA) (bovine, UniProt P02769 25-607). The assay is described as follows: direct ELISA, BSA coated at 10 µg/ml. A general note: ELISA stands for enzyme-linked immunosorbent assay.
In assay [4] the target is T3, pepscan peptide 1: 1-KCNTATCATQ-10 (human, ends and bridges not checked; cysteine pairing not given here).
T3 construct: Spotted on a nitrocellulose membrane
T3 peptide: KCNTATCATQ
The assay is described as follows: pepscan on nitrocellulose membrane, antibody 1 µg/ml.

For assay [5], the target named is T4, human islet amyloid polypeptide (human IAPP), IAPP solution containing IAPP fibrils (human, not fully specified; disulfide bridge between cysteine residues 2 and 7 and an amidated C-terminus (as the filing describes human IAPP)).
T4 construct: The human IAPP solution used for ELISA coating contained IAPP fibrils (electron microscopy); also called hIAPP; amylin
T4 peptide: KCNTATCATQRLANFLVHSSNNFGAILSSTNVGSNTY
The assay is described as follows: direct ELISA, human IAPP solution (fibrils) coated at 10 µg/ml.

Assay [6] addresses T4, human islet amyloid polypeptide (human …). The assay is described as follows: direct ELISA, human IAPP solution (fibrils) coated at 10 µg/ml, comparison with chimeric.
Assay [7] has as its target T5, pepscan peptide 7: 19-SSNNFGAILS-28 (human).
T5 construct: Spotted on a nitrocellulose membrane
T5 peptide: SSNNFGAILS
Description: pepscan on nitrocellulose membrane, antibody 1 µg/ml.

For assay [8], the target named is T6, pepscan peptide 6: 16-LVHSSNNFGA-25 (human).
T6 construct: Spotted on a nitrocellulose membrane
T6 peptide: LVHSSNNFGA
Described as above.

No end group written: not given here.

By EC50 is commonly meant the concentration needed to bring the measured effect to its halfway point. A higher EC50 goes with a need for much substance.

bovine serum albumin (BSA), sequence (P02769 25-607 limits assumed): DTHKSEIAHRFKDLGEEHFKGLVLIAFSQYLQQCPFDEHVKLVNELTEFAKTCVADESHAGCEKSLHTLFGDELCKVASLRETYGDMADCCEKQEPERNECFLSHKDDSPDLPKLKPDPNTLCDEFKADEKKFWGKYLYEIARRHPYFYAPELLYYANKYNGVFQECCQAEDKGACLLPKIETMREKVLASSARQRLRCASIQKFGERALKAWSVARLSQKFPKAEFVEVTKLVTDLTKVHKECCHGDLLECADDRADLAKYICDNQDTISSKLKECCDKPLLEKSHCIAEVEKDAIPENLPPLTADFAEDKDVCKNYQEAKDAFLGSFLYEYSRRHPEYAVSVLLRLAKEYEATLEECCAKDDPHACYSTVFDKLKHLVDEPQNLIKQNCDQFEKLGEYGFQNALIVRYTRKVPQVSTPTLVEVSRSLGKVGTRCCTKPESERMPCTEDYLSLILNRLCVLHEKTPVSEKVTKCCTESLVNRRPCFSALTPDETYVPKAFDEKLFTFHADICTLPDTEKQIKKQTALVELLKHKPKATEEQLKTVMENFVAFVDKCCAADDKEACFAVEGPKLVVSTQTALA

B1: NI-203.26C11 (antibody, V domains shown)
VH: QVQLQESGPGLVKPSQTLSLTCTVSGGSISSGNYYWTWIRQPAGKGLEWIGHIYSSGTTNYNPSLESRVTISVDTSKNQFSLSLNSVTAADTAVYYCARPLATVPDAFNIWGQGTMVTVSS
VL: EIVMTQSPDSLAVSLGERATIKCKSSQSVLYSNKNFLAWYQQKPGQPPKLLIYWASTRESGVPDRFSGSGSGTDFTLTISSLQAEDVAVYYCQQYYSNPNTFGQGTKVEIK
notes: Recombinant human antibody, kappa light chain, detected with anti-human IgG gamma secondary
Regarding B1, the binding result in assay [1] is reported as “no binding (tested: 50 nM)”; in assay [2], “no binding (tested: 1 µg/ml)”; in assay [3], “no binding”; in assay [4] it was “binds”.

B2: mouse chimeric NI-203.26C11 (antibody, V domains shown)
VH: QVQLQESGPGLVKPSQTLSLTCTVSGGSISSGNYYWTWIRQPAGKGLEWIGHIYSSGTTNYNPSLESRVTISVDTSKNQFSLSLNSVTAADTAVYYCARPLATVPDAFNIWGQGTMVTVSS
VL: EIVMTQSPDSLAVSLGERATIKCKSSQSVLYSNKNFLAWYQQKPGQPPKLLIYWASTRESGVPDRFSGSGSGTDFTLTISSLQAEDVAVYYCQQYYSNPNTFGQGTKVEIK
notes: Mouse chimeric version of the human antibody (said to comprise the CDR domains of the human antibody)
Turning to B2, the binding result in assay [3] is “no binding”.

B3: NI-203.9A2 (antibody, V domains shown)
VH: EVQLVESGGGLVQPGGSLRLSCAASGFTFSTFAMSWVRQAPGKGLEWVSTISGSGDNTYYADSLKGRFTISRDNSKNTLYLQVNSLRPEDTAVYYCAKSPSSLLATYFDYWGQGTLVTVSS
VL: EIVLTQSPSTLSASVGDRVTITCRASESINSWLAWYQQKPGKGPKLLIYKASSLQSGVPSRFSGSGSGTEFTLTISSLQPDDFATYYCQQHNSYWTFGQGTKVEIK
notes: as for B1
On to B3, for which the binding result in assay [1] is listed as “no binding (tested: 50 nM)”; in assay [3], “no binding”.

B4: mouse chimeric NI-203.9A2 (antibody, V domains shown)
VH: EVQLVESGGGLVQPGGSLRLSCAASGFTFSTFAMSWVRQAPGKGLEWVSTISGSGDNTYYADSLKGRFTISRDNSKNTLYLQVNSLRPEDTAVYYCAKSPSSLLATYFDYWGQGTLVTVSS
VL: EIVLTQSPSTLSASVGDRVTITCRASESINSWLAWYQQKPGKGPKLLIYKASSLQSGVPSRFSGSGSGTEFTLTISSLQPDDFATYYCQQHNSYWTFGQGTKVEIK
notes: as for B2
On to B4, for which the binding result in assay [3] is reported as “no binding”.

B5: NI-203.19H8 (antibody, V domains shown)
VH: EVQLVESGGGVVQPGTSLRLSCAASGFTFSSYGMHWVRQAPGKGLEWVAIIWYDGSKEYYADSLKGRVTISRDNSENTLYLQLHTLRVEDTAVYFCARTIASATVDHGMDVWGQGTLVTVSS
VL: DVVMTQSPSSVSASVGDRVTITCRASHDISTWLAWYQQRPGKAPNLLIFGASRLQSGVSPRFSGSGSGTDFTLTISSLQPEDFATYYCQQTNNFPPTFGQGTRLEIK
notes: as for B1
With B5, the binding result was “no binding (tested: 50 nM)” in assay [1], “no binding” in assay [3], “binds” in assay [7] and “binds” in assay [8]. Further, the EC50 in assay [5] turned out to be 22 nM; in assay [6], 22.9 nM.

B6: mouse chimeric NI-203.19H8 (antibody, V domains shown)
VH: EVQLVESGGGVVQPGTSLRLSCAASGFTFSSYGMHWVRQAPGKGLEWVAIIWYDGSKEYYADSLKGRVTISRDNSENTLYLQLHTLRVEDTAVYFCARTIASATVDHGMDVWGQGTLVTVSS
VL: DVVMTQSPSSVSASVGDRVTITCRASHDISTWLAWYQQRPGKAPNLLIFGASRLQSGVSPRFSGSGSGTDFTLTISSLQPEDFATYYCQQTNNFPPTFGQGTRLEIK
notes: as for B2
In assay [5], B6 showed a concentration giving a half-maximal response (EC50) of 23.9 nM. For the same molecule, in assay [3], the binding result was “no binding”.

B7: NI-203.8E3 (antibody, V domains shown)
VH: QVQLVQSGAEVKKPGSSVKVSCKASGGTFSSHTISWVRQAPGQGLEWMGGIIPIFGTANYAQKFQDRVTVTADKSTNTAYMELSSLRPEDTAVYYCAKGELEPRILYYYGMDVWGRGTTVTVSS
VL: DVVMTQSPLSLPVTLGQPASISCRSSQSLVYSDGNTYLNWFHQRPGQSPRRLIYKVSNRDSGVPDRFSGSGSGTDFTLKISRVEAEDVGVYYCMQGSNWPGTFGQGTKVEIK
notes: as for B1
As to B7, in assay [3], the binding result is recorded as “no binding”.

These data come from patent publication US20210107972A1 (NEURIMMUNE, published 2021).
